In paper PMC6643034:

Target: CXCL8 (human)

B1: Evasin 3 (EVA3) (natural protein)
chain: DGGLVSTIESRTSGDGADNFDVVSCNKNCTSGQNECPEGCFCGLLGQNKKGHCYKIIGNLSGEPPVVRR
modifications: also: glycosylated
  neutralization of human CXCL8-induced granulocyte migration (Transwell, EC80 dose of CXCL8, EVA3 0.02–100 nM); mean IC50 of four biological replicates: 1.94e-09 M
